From patent US20250263502A1
Where a chain is given by its changes, count along the chain named. Names and notes keep the numbering of the source.

B1: VNAR clone H6 fused N-terminally to human IgG1 Fc (VNAR-hFc) (Fc fusion, not shown: a dimerising Fc or GST)
chain: ARVDQTPQTITKEEGESLTINCVLRTHSNALASTSWYRKKSGSTREETISKGGRYVETVNSGSKSFSLRINDLTVEDSGTYRCNVYAFLEIQPNIYHEFDVYGDGTAVTVNA
B2: VNAR clone F1 fused N-terminally to human IgG1 Fc (VNAR-hFc) (Fc fusion, not shown: a dimerising Fc or GST)
chain: ARVDQTPQTITKEEGESLTINCVLRVHGRALASTSWYRKKSGSTREETISKGGRYVETVNSGSKSFSLRINDLTVEDSGTYRCNVYGLSSGDIEGVKKIDVYGDGTAVTVNA
B3: VNAR clone F12 fused N-terminally to human IgG1 Fc (VNAR-hFc) (Fc fusion, not shown: a dimerising Fc or GST)
chain: B2 chain with S90F
B4: VNAR clone H7 fused N-terminally to human IgG1 Fc (VNAR-hFc) (Fc fusion, not shown: a dimerising Fc or GST)
chain: ARVDQTPQTITKEEGESLTINCVLRYNNPALASTSWYRKKSGSTREETISKGGRYVETVNSGSKSFSLRINDLTVEDSGTYRCNVYFFPSFLVDKLQSHDVYGDGTAVTVNA
B5: VNAR clone E12 fused N-terminally to human IgG1 Fc (VNAR-hFc) (Fc fusion, not shown: a dimerising Fc or GST)
chain: ARVDQTPQTITKEEGESLTINCVLRTQDPALASTSWYRKKSGSTREETISKGGRYVETVNSGSKSFSLRINDLTVEDSGTYRCNVYFLLAPTKTKLQGIDVYGDGTAVTVNA
B6: VNAR clone D1 fused N-terminally to human IgG1 Fc (VNAR-hFc) (Fc fusion, not shown: a dimerising Fc or GST)
chain: ARVDQTPQTITKEEGESLTINCVLRHNYSALASTSWYRKKSGSTREETISKGGRYVETVNSGSKSFSLRINDLTVEDSGTYRCNVYGISFIEEKIRYDFDVYGDGTAVTVNA
B7: VNAR clone F11 fused N-terminally to human IgG1 Fc (VNAR-hFc) (Fc fusion, not shown: a dimerising Fc or GST)
chain: ARVDQTPQTITKEEGESLTINCVLRGEFYALASTSWYRKKSGSTREETISKGGRYVETVNSGSKSFSLRINDLTVEDSGTYRCNVYGYRIFSPEVKGPNDVYGDGTAVTVNA
B8: VNAR clone H7A fused N-terminally to human IgG1 Fc (VNAR-hFc) (Fc fusion, not shown: a dimerising Fc or GST)
chain: PGVDQTEQTIKKEEGESVTIKCVMRVKYPALASTSRYRKKSGSREETISKGGRYVETVNYSSKSISVRINDMTVEDSGRYRCNVYEEYAVDCDALVYQDVYGDGTAVTVNA
B9: VNAR clone B12 fused N-terminally to human IgG1 Fc (VNAR-hFc) (Fc fusion, not shown: a dimerising Fc or GST)
chain: ARVDQTPRSVTKETGESLTINCVLRDASYALGSTCWYRKKSGSTNEESISKGGRYVETVNSGSKSFSLRINDLTVEDGGTYRCGVARGWRTLNYLCDVRTGEWSCVWRAAACGDGTAVTVNA
B10: VNAR clone H8 fused N-terminally to human IgG1 Fc (VNAR-hFc) (Fc fusion, not shown: a dimerising Fc or GST)
chain: ARVDQTPQTITKETGESLTINCVLRDSNCALPSTYWYRKKSGSTNEESISKGGRYVETVNSGSKSFSLRINDLVVEDSGTYRCKVGNYCIRLCYDMKFAVDVYGGGTAVTVNA
B11: VNAR clone G10 fused N-terminally to human IgG1 Fc (VNAR-hFc) (Fc fusion, not shown: a dimerising Fc or GST)
chain: ARVDQTPQTITKETGESLTINCVLRDSNCALSSTYWYRKKSGSTNEENISKGGRYVETVNSGSKSFSLKINDLTVEDSGTYRCKVVFKLFSGRACAGEKDVYGGGTVVTVNA
B12: VNAR clone G6 fused N-terminally to human IgG1 Fc (VNAR-hFc) (Fc fusion, not shown: a dimerising Fc or GST)
chain: ARVDQTPQTITKEEGESLTINCVLRVETRALASTSWYRKKSGSTREETISKGGRYVETVNSGSKSFSLRINDLTVEDSGTYRCNVYIRHYSEFTQAPFRDVYGDGTAVTVNA
B13: VNAR clone H12 fused N-terminally to human IgG1 Fc (VNAR-hFc) (Fc fusion, not shown: a dimerising Fc or GST)
chain: B2 chain with R29C, S90F, G91V
B14: VNAR clone G12 fused N-terminally to human IgG1 Fc (VNAR-hFc) (Fc fusion, not shown: a dimerising Fc or GST)
chain: ARVDQTPQTITKETGESLTINCVLRDSNCALSSTYWYRKKSGSTNEALISKGGRYVETVNSGSKSFSLRINDLTVEDSGTYRCNVVQDLRDDCFFRDVYGGGTAVTVNA
B15: VNAR clone C6 fused N-terminally to human IgG1 Fc (VNAR-hFc) (Fc fusion, not shown: a dimerising Fc or GST)
chain: B14 chain with Q87Y
B16: VNAR clone A8 fused N-terminally to human IgG1 Fc (VNAR-hFc) (Fc fusion, not shown: a dimerising Fc or GST)
chain: ARVDQTPQTITKEEGESLTINCVLRRNFQLASTSWYRKKSGSTREETISKGGRYVETVNSGSKSFSLRINDLTVEDSGTYRCNVYGFVEFAKNIVEFIDVYGDGTAVTVNA
B17: VNAR clone G3 fused N-terminally to human IgG1 Fc (VNAR-hFc) (Fc fusion, not shown: a dimerising Fc or GST)
chain: ARVDQTPQTITKETGESLTINCVLRDNNCALSTTYWYRKKSGSTNEENISKGGRYVETVNSGSKSFSLRINDLTVEDSGTYRCKVHFFPSFCNSTSIRSVDVYGGGTVVTVNA

molecular target: ectodomain of murine CD98hc (mouse) (UniProt P10852); test: ELISA, purified VNAR-Fc titrated on coated CD98hc
Sequence (P10852 100-526): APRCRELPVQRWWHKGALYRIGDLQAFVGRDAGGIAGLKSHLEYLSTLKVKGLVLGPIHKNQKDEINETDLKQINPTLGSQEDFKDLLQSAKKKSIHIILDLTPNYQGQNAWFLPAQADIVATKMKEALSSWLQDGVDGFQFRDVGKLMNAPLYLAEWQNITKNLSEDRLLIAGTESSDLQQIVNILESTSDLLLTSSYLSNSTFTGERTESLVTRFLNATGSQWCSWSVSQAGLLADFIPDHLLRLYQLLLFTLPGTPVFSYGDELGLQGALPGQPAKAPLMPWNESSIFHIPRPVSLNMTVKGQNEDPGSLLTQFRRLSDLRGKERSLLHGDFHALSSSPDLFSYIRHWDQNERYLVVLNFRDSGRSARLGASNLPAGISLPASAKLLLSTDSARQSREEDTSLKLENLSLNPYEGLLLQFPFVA

| Binder | EC50 |
| --- | --- |
| B1 | 86 nM |
| B2 | 3860 nM |
| B3 | 72 nM |
| B4 | 504 nM |
| B5 | 819 nM |
| B6 | 190 nM |

molecular target: ectodomain of human CD98hc (human) (UniProt P08195); test: ELISA, expression medium of VNAR-hFc on coated protein
Sequence (P08195 206-630): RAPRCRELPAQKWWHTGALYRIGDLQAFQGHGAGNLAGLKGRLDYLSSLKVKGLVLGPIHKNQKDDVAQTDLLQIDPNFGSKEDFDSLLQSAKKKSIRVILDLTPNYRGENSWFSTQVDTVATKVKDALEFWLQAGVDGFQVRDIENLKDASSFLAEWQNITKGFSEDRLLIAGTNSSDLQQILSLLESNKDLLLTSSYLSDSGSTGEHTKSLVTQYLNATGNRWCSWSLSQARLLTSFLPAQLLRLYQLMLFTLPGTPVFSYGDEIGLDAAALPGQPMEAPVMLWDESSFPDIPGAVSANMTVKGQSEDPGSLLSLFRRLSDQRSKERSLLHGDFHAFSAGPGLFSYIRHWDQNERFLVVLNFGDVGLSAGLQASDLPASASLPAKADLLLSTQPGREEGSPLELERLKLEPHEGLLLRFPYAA

| Binder | Binding [relative units] (relative units) |
| --- | --- |
| B7 | 3.03 |
| B8 | 0.043 |
| B9 | 0.076 |
| B10 | 0.048 |
| B11 | 0.043 |
| B12 | 0.042 |
| B13 | 0.046 |
| B14 | 0.044 |
| B15 | 0.041 |
| B16 | 2.97 |

molecular target: ectodomain of murine CD98hc (mouse) (UniProt P10852); test: as above

| Binder | Binding [relative units] (relative units) |
| --- | --- |
| B7 | 0.096 |
| B8 | 0.043 |
| B9 | 0.084 |
| B10 | 0.049 |
| B17 | 0.041 |
| B11 | 0.041 |
| B1 | 0.186 |
| B12 | 0.041 |
| B2 | 0.115 |
| B13 | 0.045 |
| B3 | 0.563 |
| B4 | 0.108 |
| B5 | 0.078 |
| B14 | 0.044 |
| B15 | 0.042 |
| B16 | 0.135 |
| B6 | 0.417 |

molecular target: Human serum albumin (human) (UniProt P02768); test: ELISA, expression medium of VNAR-hFc on coated protein (negative control)
Sequence (P02768 25-609 limits assumed): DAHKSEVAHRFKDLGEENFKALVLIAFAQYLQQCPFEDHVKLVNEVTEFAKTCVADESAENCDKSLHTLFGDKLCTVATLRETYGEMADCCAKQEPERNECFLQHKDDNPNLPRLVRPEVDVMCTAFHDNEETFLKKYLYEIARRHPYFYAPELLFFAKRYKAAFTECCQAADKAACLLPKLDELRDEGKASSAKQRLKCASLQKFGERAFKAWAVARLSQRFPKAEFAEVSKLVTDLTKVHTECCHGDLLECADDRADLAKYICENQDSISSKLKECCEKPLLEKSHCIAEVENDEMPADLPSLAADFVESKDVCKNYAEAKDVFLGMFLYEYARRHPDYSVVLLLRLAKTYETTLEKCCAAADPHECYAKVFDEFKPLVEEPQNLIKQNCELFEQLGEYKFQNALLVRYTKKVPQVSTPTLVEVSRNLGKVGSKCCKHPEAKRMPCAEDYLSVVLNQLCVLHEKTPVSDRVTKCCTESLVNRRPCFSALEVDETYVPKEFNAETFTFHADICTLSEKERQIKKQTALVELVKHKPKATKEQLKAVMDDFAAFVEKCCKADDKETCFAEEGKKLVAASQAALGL

| Binder | Binding [relative units] (relative units) |
| --- | --- |
| B7 | 0.072 |
| B8 | 0.054 |
| B9 | 0.081 |
| B10 | 0.059 |
| B17 | 0.053 |
| B11 | 0.051 |
| B1 | 0.06 |
| B12 | 0.052 |
| B2 | 0.073 |
| B13 | 0.055 |
| B3 | 0.112 |
| B4 | 0.072 |
| B5 | 0.056 |
| B14 | 0.054 |
| B15 | 0.052 |
| B16 | 0.065 |
| B6 | 0.074 |
